In the Human Domainome abundance scans (Beltran et al. 2025):
± gives the uncertainty stated by the source.

B1: Far upstream element-binding protein 3, residues 75 to 150; numbered along this chain, Q96I24 (parent)
chain: RTVITEEFKVPDKMVGFIIGRGGEQISRIQAESGCKIQIASESSGIPERPCVLTGTPESIEQAKRLLGQIVDRCRN

Variants of: B1
Assay: abundance fitness (aPCA) (normalised: wild type 0, dead -1); higher = more abundant; growth selection in yeast, the domain comes from the species named
Details: Homo sapiens
With RTVITEEFKVPDKMVGFIIGRGGEQISRIQAESGCKIQIASESSGIPERPCVLTGTPESIEQAKRLLGQIVLRCRN [D72L] the abundance fitness was -0.083 ± 0.033.
RTVITEEFKVPDKMVGFIIGRGGEQISRIQAESGCKIQIASESSGIPERPCVLTGTPESIEQAKRLLGCIVDRCRN [Q69C] gave an abundance fitness of -0.076 ± 0.046.
RTVITEEFKVPDKMVGFIIGRGGEQISRISAESGCKIQIASESSGIPERPCVLTGTPESIEQAKRLLGQIVDRCRN [Q30S] gave an abundance fitness of -0.051 ± 0.037.
For RTVITEEFKVPDKMVGFIIGRGGEQISRIQAESGCKIQIASDSSGIPERPCVLTGTPESIEQAKRLLGQIVDRCRN [E42D], the abundance fitness was -0.023 ± 0.048.
Work on RTVITEEFKNPDKMVGFIIGRGGEQISRIQAESGCKIQIASESSGIPERPCVLTGTPESIEQAKRLLGQIVDRCRN [V10N] yielded an abundance fitness of -0.612 ± 0.081.
Work on RTVITEEFKVPDKMVGFIIGRGGEQISRIQAESGCKIQIASESSGIPERPCVLTGTPESIEQAKRLLTQIVDRCRN [G68T] yielded an abundance fitness of -0.06 ± 0.039.
For RMVITEEFKVPDKMVGFIIGRGGEQISRIQAESGCKIQIASESSGIPERPCVLTGTPESIEQAKRLLGQIVDRCRN [T2M], the abundance fitness was -0.033 ± 0.046.
Work on RTVITEEFKVPDKMVGFIIGRGGEQISRIQAESGCKIQIASESSGIPERPCVLMGTPESIEQAKRLLGQIVDRCRN [T54M] yielded an abundance fitness of -0.077 ± 0.05.
RTVITEEFKVPDKMVGFIIGRGGEQISRIQAESGCKIQIASESSGIPERPCVLTGTPESIELAKRLLGQIVDRCRN [Q62L] showed an abundance fitness of -0.044 ± 0.03.
With RTVITEEFKVPDKMVGFIIGRGGEQISRIQAESGCKIQIASESSGIPERPCVLTGWPESIEQAKRLLGQIVDRCRN [T56W] the abundance fitness was -0.332 ± 0.033.
RTVITEEFKVPDKMVGFIIGRGGEQISRIQAESGCKIQIASESSGIPERPCVLTGKPESIEQAKRLLGQIVDRCRN [T56K] showed an abundance fitness of -0.166 ± 0.04.
For RTVITEEFKVPDKMVGFIIGRGGEQISRIQAESGCKIQIASESSGIPERPCVLTGTPESIEQAKRLLGQITDRCRN [V71T], the abundance fitness was -0.026 ± 0.042.
With RTVITEEFKVPDKMVGFIIGRGGEQISRIQAESGCKIQIASESSGIPERPCVLTGTPESIEQAKRLLGQIYDRCRN [V71Y] the abundance fitness was -0.047 ± 0.054.
For RTVITEEFKVPDKMVGFIIGRGGEQISRIQAESGCKIQIASESSGIPERPCVLTGTPESIEQAKRLLGQIKDRCRN [V71K], the abundance fitness was -0.132 ± 0.044.
With DTVITEEFKVPDKMVGFIIGRGGEQISRIQAESGCKIQIASESSGIPERPCVLTGTPESIEQAKRLLGQIVDRCRN [R1D] the abundance fitness was 0.022 ± 0.076.
Variant RTVITEEFKVPDKMVGFIIGRGGEQISRIQAESGCKIQIASESSGIPERPCVLTGTPESISQAKRLLGQIVDRCRN [E61S] has an abundance fitness of -0.026 ± 0.035.
With RTVITEEFKVPDKMMGFIIGRGGEQISRIQAESGCKIQIASESSGIPERPCVLTGTPESIEQAKRLLGQIVDRCRN [V15M] the abundance fitness was -0.073 ± 0.043.
With RTVITEEFKVPDKMVGFIIGRGGEQISRIQAESGCKIQIASESSGIPERPCVLTGTPERIEQAKRLLGQIVDRCRN [S59R] the abundance fitness was -0.141 ± 0.028.
With RTVITEEFKVPDKMVGFIIGRGGEQISRIQAESGCKDQIASESSGIPERPCVLTGTPESIEQAKRLLGQIVDRCRN [I37D] the abundance fitness was -0.528 ± 0.051.
In the case of RTVITEEFKVPDKMVGFIIGRGGEQISRIQAESGCKIQIASESSGIPERPCVLTGTPESIEQAKRLLGQAVDRCRN [I70A], the abundance fitness is reported as 0.05 ± 0.034.
With RTVITEEFKVPDKMVGFIIGRGGEQISRIQAESGCKIQIASESSGIPERPCVLTGTPESIEQAKRLLGQIVDRCAN [R75A] the abundance fitness was 0.064 ± 0.032.
For RTVITEEFKVPDKMVGFIIGRGGEQISRIQAESGCKIQIASESSGIPERPCVLTGTPESIEQAKRLLGQIVDRCVN [R75V], the abundance fitness was 0.008 ± 0.035.
RTVITEEFKVPDKMVGFIIGRGGEQISRIQAESGCKIQIASESSGIPERPCVLTGTPESIEQASRLLGQIVDRCRN [K64S] gave an abundance fitness of -0.416 ± 0.032.
In the case of RTVITEEFKVPDKMVGFIIGRGGEQISRIQAESGCKIQIASESSHIPERPCVLTGTPESIEQAKRLLGQIVDRCRN [G45H], the abundance fitness is reported as -0.065 ± 0.057.
In the case of RTVITEEFKVPTKMVGFIIGRGGEQISRIQAESGCKIQIASESSGIPERPCVLTGTPESIEQAKRLLGQIVDRCRN [D12T], the abundance fitness is reported as -0.073 ± 0.04.
For RTVIVEEFKVPDKMVGFIIGRGGEQISRIQAESGCKIQIASESSGIPERPCVLTGTPESIEQAKRLLGQIVDRCRN [T5V], the abundance fitness was -0.09 ± 0.032.
For RTVITEEFKVPDVMVGFIIGRGGEQISRIQAESGCKIQIASESSGIPERPCVLTGTPESIEQAKRLLGQIVDRCRN [K13V], the abundance fitness was -0.263 ± 0.03.
Work on RTVITEEFKVPDGMVGFIIGRGGEQISRIQAESGCKIQIASESSGIPERPCVLTGTPESIEQAKRLLGQIVDRCRN [K13G] yielded an abundance fitness of -0.027 ± 0.026.
RTVITEEFKVPDKMVGFIIGRGIEQISRIQAESGCKIQIASESSGIPERPCVLTGTPESIEQAKRLLGQIVDRCRN [G23I] showed an abundance fitness of -0.294 ± 0.063.
Work on RTVITEEFKVPDKVVGFIIGRGGEQISRIQAESGCKIQIASESSGIPERPCVLTGTPESIEQAKRLLGQIVDRCRN [M14V] yielded an abundance fitness of -0.159 ± 0.033.
Variant RTVITEEFKVPDKMVGFIIGRGGEQISRIQAESGCKIQIASESSGIPERPCCLTGTPESIEQAKRLLGQIVDRCRN [V52C] has an abundance fitness of -0.093 ± 0.051.
With RTVITEEFKVPDKMVGFIIYRGGEQISRIQAESGCKIQIASESSGIPERPCVLTGTPESIEQAKRLLGQIVDRCRN [G20Y] the abundance fitness was -0.524 ± 0.091.
Variant RTVITEEFKVPDKMVGFIIGRGGEQISRIQAESGCKIQITSESSGIPERPCVLTGTPESIEQAKRLLGQIVDRCRN [A40T] has an abundance fitness of -0.04 ± 0.038.
With RTVITEEFKVPDKMVGFIIGRGGEQISRIQAESGCKIQIASESSGIPLRPCVLTGTPESIEQAKRLLGQIVDRCRN [E48L] the abundance fitness was -0.068 ± 0.031.
RTVITEEFKVPDKMVGFIIGRGGEQISRIQAESGCKIQIASESSGIPERPCVLTGTPESIEQKKRLLGQIVDRCRN [A63K] showed an abundance fitness of -0.968 ± 0.086.
Variant RTVITEEFKVPDKMVGFIIGRGGEQISRIQAESGCKIQIASESSGIPERPCVLTGTPESIEQLKRLLGQIVDRCRN [A63L] has an abundance fitness of -0.746 ± 0.037.
